Data as given in IntAct's records for PubMed 12080061.

B1: 182 kDa tankyrase-1-binding protein (Homo sapiens), Q9C0C2 (parent)
chain: MKVSTLRESSAMASPLPREMEEELVPTGSEPGDTRAKPPVKPKPRALPAKPALPAKPSLLVPVGPRPPRGPLAELPSARKMNMLAGPQPYGGSKRPLPFAPRPAVEASTGGEATQETGKEEAGKEEPPPLTPPARCAAPGGVRKAPAPFRPASERFAATTVEEILAKMEQPRKEVLASPDRLWGSRLTFNHDGSSRYGPRTYGTTTAPRDEDGSTLFRGWSQEGPVKSPAECREEHSKTPEERSLPSDLAFNGDLAKAASSELPADISKPWIPSSPAPSSENGGPASPGLPAEASGSGPGSPHLHPPDKSSPCHSQLLEAQTPEASQASPCPAVTPSAPSAALPDEGSRHTPSPGLPAEGAPEAPRPSSPPPEVLEPHSLDQPPATSPRPLIEVGELLDLTRTFPSGGEEEAKGDAHLRPTSLVQRRFSEGVLQSPSQDQEKLGGSLAALPQGQGSQLALDRPFGAESNWSLSQSFEWTFPTRPSGLGVWRLDSPPPSPITEASEAAEAAEAGNLAVSSREEGVSQQGQGAGSAPSGSGSSWVQGDDPSMSLTQKGDGESQPQFPAVPLEPLPTTEGTPGLPLQQAEERYESQEPLAGQESPLPLATREAALPILEPVLGQEQPAAPDQPCVLFADAPEPGQALPVEEEAVTLARAETTQARTEAQDLCRASPEPPGPESSSRWLDDLLASPPPSGGGARRGAGAELKDTQSPSTCSEGLLGWSQKDLQSEFGITGDPQPSSFSPSSWCQGASQDYGLGGASPRGDPGLGERDWTSKYGQGAGEGSTREWASRCGIGQEEMEASSSQDQSKVSAPGVLTAQDRVVGKPAQLGTQRSQEADVQDWEFRKRDSQGTYSSRDAELQDQEFGKRDSLGTYSSRDVSLGDWEFGKRDSLGAYASQDANEQGQDLGKRDHHGRYSSQDADEQDWEFQKRDVSLGTYGSRAAEPQEQEFGKSAWIRDYSSGGSSRTLDAQDRSFGTRPLSSGFSPEEAQQQDEEFEKKIPSVEDSLGEGSRDAGRPGERGSGGLFSPSTAHVPDGALGQRDQSSWQNSDASQEVGGHQERQQAGAQGPGSADLEDGEMGKRGWVGEFSLSVGPQREAAFSPGQQDWSRDFCIEASERSYQFGIIGNDRVSGAGFSPSSKMEGGHFVPPGKTTAGSVDWTDQLGLRNLEVSSCVGSGGSSEARESAVGQMGWSGGLSLRDMNLTGCLESGGSEEPGGIGVGEKDWTSDVNVKSKDLAEVGEGGGHSQARESGVGQTDWSGVEAGEFLKSRERGVGQADWTPDLGLRNMAPGAVCSPGESKELGVGQMDWGNNLGLRDLEVTCDPDSGGSQGLRGCGVGQMDWTQDLAPQNVELFGAPSEAREHGVGGVSQCPEPGLRHNGSLSPGLEARDPLEARELGVGETSGPETQGEDYSSSSLEPHPADPGMETGEALSFGASPGRCPARPPPSGSQGLLEEMLAASSSKAVARRESAASGLGGLLEEEGAGAGAAQEEVLEPGRDSPPSWRPQPDGEASQTEDVDGTWGSSAARWSDQGPAQTSRRPSQGPPARSPSQDFSFIEDTEILDSAMYRSRANLGRKRGHRAPVIRPGGTLGLSEAADSDAHLFQDSTEPRASRVPSSDEEVVEEPQSRRTRMSLGTKGLKVNLFPGLSPSALKAKLRPRNRSAEEGELAESKSSQKESAVQRSKSCKVPGLGKPLTLPPKPEKSSGSEGSSPNWLQALKLKKKKV

Variants of: B1
Conditions: with tnks1_human TNKS

Row | Variant | effect of a mutation on the interaction
1 | G1513A | disrupting interaction strength
